Source: paper PMC5988349

What was measured:
[1] = target: dynactin (purified from pig brains) (pig (endogenous in pig brain)) (UniProt F2Z5G5); assay: cryo-EM structure
[2] = target: dynactin (purified from pig brains) (pig (endogenous in pig brain)) (UniProt F2Z5G5); assay: negative-stain EM with 3D classification
[3] = target: dynein tail (HC^1-1455) complex (human) (UniProt Q14204); assay: negative-stain EM with 3D classification
[4] = target: wild-type human cytoplasmic dynein-1, SNAPf-tagged, labelled with TMR or Alexa647 (human) (UniProt Q14204)

In the case of “dynein tail (HC^1-1455) complex (from UniProt Q14204;O43237;P63172;P63167;Q9NP97)”, the stoichiometry N [1] is reported as 2, the percent of adaptor complexes with one dynein (with m5) [2] is reported as 69% and the percent of adaptor complexes with two dyneins (with m2 and m4) [3] is reported as 88%. It also gave a percent of adaptor complexes with two dyneins (with m2 and m5) [3] of 17% and a percent of adaptor complexes with two dyneins (with m2 and m6) [3] of 94%.

In the case of “wild-type human cytoplasmic dynein-1, SNAPf-tagged, labelled with TMR or Alexa647 (from UniProt Q14204;O43237;P63172;P63167;Q9NP97) (complex)”, the velocity of BICD2 complexes containing both fluorophores, and hence two dyneins [4] is reported as 1.08 μm/s.
